{"source": "IntAct's records for PubMed 10648618", "parents": {"B1": {"name": "Carbon catabolite-derepressing protein kinase (Saccharomyces cerevisiae), P06782 (parent)", "chain": "MSSNNNTNTAPANANSSHHHHHHHHHHHHHGHGGSNSTLNNPKSSLADGAHIGNYQIVKTLGEGSFGKVKLAYHTTTGQKVALKIINKKVLAKSDMQGRIEREISYLRLLRHPHIIKLYDVIKSKDEIIMVIEYAGNELFDYIVQRDKMSEQEARRFFQQIISAVEYCHRHKIVHRDLKPENLLLDEHLNVKIADFGLSNIMTDGNFLKTSCGSPNYAAPEVISGKLYAGPEVDVWSCGVILYVMLCRRLPFDDESIPVLFKNISNGVYTLPKFLSPGAAGLIKRMLIVNPLNRISIHEIMQDDWFKVDLPEYLLPPDLKPHPEEENENNDSKKDGSSPDNDEIDDNLVNILSSTMGYEKDEIYESLESSEDTPAFNEIRDAYMLIKENKSLIKDMKANKSVSDELDTFLSQSPPTFQQQSKSHQKSQVDHETAKQHARRMASAITQQRTYHQSPFMDQYKEEDSTVSILPTSLPQIHRANMLAQGSPAASKISPLVTKKSKTRWHFGIRSRSYPLDVMGEIYIALKNLGAEWAKPSEEDLWTIKLRWKYDIGNKTNTNEKIPDLMKMVIQLFQIETNNYLVDFKFDGWESSYGDDTTVSNISEDEMSTFSAYPFLHLTTKLIMELAVNSQSN", "partner": "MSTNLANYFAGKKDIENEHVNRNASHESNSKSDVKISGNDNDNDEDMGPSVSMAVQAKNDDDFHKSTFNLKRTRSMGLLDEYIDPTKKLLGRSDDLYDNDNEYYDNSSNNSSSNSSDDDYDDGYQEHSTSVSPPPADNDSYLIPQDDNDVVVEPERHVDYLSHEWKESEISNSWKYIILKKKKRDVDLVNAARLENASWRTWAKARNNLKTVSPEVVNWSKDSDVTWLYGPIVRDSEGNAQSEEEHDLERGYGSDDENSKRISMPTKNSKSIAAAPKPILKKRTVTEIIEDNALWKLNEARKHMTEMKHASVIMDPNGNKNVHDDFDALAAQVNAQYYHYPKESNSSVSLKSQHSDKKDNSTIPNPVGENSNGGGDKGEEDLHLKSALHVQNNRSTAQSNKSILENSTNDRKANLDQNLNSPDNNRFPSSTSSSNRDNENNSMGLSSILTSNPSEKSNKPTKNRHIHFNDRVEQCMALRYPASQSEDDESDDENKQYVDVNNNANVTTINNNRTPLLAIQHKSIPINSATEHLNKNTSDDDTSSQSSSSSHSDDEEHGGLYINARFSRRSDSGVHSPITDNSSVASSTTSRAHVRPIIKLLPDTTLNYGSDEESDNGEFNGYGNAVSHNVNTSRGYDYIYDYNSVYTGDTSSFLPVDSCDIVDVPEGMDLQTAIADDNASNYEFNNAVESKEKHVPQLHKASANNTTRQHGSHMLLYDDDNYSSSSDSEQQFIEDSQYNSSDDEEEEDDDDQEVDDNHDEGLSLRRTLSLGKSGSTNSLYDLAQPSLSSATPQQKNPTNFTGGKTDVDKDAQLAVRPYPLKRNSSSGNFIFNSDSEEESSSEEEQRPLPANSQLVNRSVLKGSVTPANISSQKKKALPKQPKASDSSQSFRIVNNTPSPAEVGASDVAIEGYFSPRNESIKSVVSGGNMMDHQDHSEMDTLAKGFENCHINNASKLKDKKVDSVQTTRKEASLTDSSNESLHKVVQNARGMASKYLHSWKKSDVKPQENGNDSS"}}, "data": [{"variants_of": "B1", "conditions": "with reg1_yeast REG1, Q00816", "values": [{"variant": "K84R", "effect of a mutation on the interaction": "with no effect"}]}, {"variants_of": "B1", "conditions": "with reg1_yeast REG1, Q00816", "remark": "another data set of the same source", "values": [{"variant": "K84R", "effect of a mutation on the interaction": "increasing interaction strength"}]}]}
